We go through 8 molecules from patent US20150030595A1.

Like-named read-outs stand apart in the source and are kept apart here.

Test [1] concerns the target T1, ACVR2B-Fc fusion protein (human) (UniProt Q13705).
T1 sequence: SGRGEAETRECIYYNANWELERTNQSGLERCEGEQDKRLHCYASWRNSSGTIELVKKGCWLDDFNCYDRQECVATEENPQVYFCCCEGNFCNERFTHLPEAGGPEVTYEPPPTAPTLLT
The test can be described thus: SPR (ProteOn XPR36).

Test [2] deals with Fc. The test can be described thus: phage ELISA, Fc coated.
Test [3] addresses DLK1-Fc fusion protein (human). Briefly: phage ELISA, DLK1 coated.
Test [4] concerns the target anti-myc antibody coated on the ELISA plate. Briefly: phage ELISA, anti-myc coated.
Test [5] has as its target DLK1-Fc fusion protein (human). The test can be described thus: phage ELISA; OD on DLK1 divided by OD on a-myc.
The target of test [6] is anti-myc antibody coated on the ELISA plate. Briefly: phage ELISA, anti-myc coated. The source holds these as a separate data set.
For test [7], the target named is T1, ACVR2B-Fc fusion protein (human). The test can be described thus: phage ELISA, ACVR2B coated.
For test [8] the target is unchanged. Briefly: phage ELISA, ACVR2B coated. The source holds these as a separate data set.
The target in test [9] is Fc. The test can be described thus: phage ELISA, Fc coated. This is another data set of the same source.
Test [10] deals with T1, ACVR2B-Fc fusion protein (human). The test can be described thus: phage ELISA; OD on ACVR2B divided by OD on a-myc.

DLK1-Fc fusion protein (human), sequence (chain, as listed by the source limits assumed, form in doubt): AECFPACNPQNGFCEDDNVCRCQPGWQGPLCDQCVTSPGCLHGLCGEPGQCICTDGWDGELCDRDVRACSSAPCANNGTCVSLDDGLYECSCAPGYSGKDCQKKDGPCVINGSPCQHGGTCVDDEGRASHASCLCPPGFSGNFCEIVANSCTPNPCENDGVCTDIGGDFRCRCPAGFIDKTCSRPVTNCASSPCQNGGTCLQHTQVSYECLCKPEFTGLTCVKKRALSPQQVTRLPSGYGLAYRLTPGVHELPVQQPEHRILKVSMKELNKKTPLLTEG

B1: human antibody F08 (full-length IgG) (antibody, V domains shown)
VH: VQLVESGGGLVQPGGSLRLSCAASGFTFSDHYMDWVRQAPGKGLEWVGRTRNKANSYTTEYAASVKGRFTISRDDSKNSLYLQMNSLRAEDTAVYYCTKGAWLDYWGQGTLVTVSS
VL: IQMTQSPSAMSASVGDRVTITCRASQGISNYLAWFQQKPGKVPKRLIYGASSLQGGVPSRFSGSGSGTEFTLTITSLQPEDFATYFCLQHKSYPLTFGPGTKVEIK
modifications: constant regions not given
In test [1], B1 showed a dissociation constant (Kd) of 4.05 pM, a koff of 1.32e-05 s⁻¹ and an on-rate constant (kon) of 3.25e+06 M⁻¹ s⁻¹.

B2: DLK1 H06 (monoclonal scFv-phage) (scFv, V domains shown)
VH: QVQLVQSGGGLIQPGGSLRLSCAASGFTFSLYGMSWVRQAPGKGLEWVSSIPGSGTRTHYADSVKGRFTISRDNSKNTLFLQMNSLRAEDTAVYYCAKSTAYLFDYWGPGTLVTVSS
VL: DIQMTQSPATLSLSPGERATLSCRASQSIRHYLAWYQQKPGQAPRLLIHGASSRATGIPDRFSGSGSGTDFTLTISRLEPEDFAVYYCQHYGSPLHSFGPGTKVEIK
For B2, the OD490 in [2] was determined as 0.0766 OD; in test [3], 2.13 OD; in test [4], 0.863 OD. For the same molecule, the Ratio in [5] came to 2.47.

B3: DLK1 A05 (monoclonal scFv-phage) (scFv, V domains shown)
VH: QMQLVESGGGLVQPGRSLRLSCAASGFTFDEHAMHWVRQAPGKGLEWVSGINWNSGKTGYADSVKGRFTISRDNGKNSLYLQMNSLRAEDTAVYYCAKSGGYGGNTNWYFDLWGRGTLVTVSS
VL: QFVLTQPPSVSGAPGQNVTISCIGTSSNIGVGYDVHWYQQVPGTAPKLLVYGNNNRPSGVPDRFSGSKSGTSASLAITGLQAEDEADYYCQSYDSRLGVVFGGGTKLTVL
For B3, the OD490 in test [2] amounted to 0.0704 OD; in test [3], 2.99 OD; in test [4] it was 0.784 OD. In addition, the Ratio in test [5] was found to be 3.81.

B4: DLK1 H12 (monoclonal scFv-phage) (scFv, V domains shown)
VH: QVQLVQSGGGLVKPGGSLRLSCAASEFTFSDYYMSWVRQAPGKGLEWLSYISGSGITTYYADSVKGRFTISRDNGKKSLYLEMNSLRAEDTAVYYCARLQGHCSGGACSNWFDAWGQGTLITVSS
VL: DIQMTQSPSSLSASVGDRLTITCRASQSILTYLNWYQQKPGKAPKLLIYAASSLQRGVPSRFSGSGSGTDFTLTISGLQPEDFATYYCQQGYGTPYTFGQGTKVDIK
In the case of B4, the OD490 turned out to be 0.0539 OD in test [2], 3.2 OD in test [3] and 0.674 OD in test [4]. Also, the Ratio in [5] was 4.75.

B5: DLK1 A10 (monoclonal scFv-phage) (scFv, V domains shown)
VH: QVQLVESGGGLVQPGRSLRLSCAASGFTFDDYAMHWVRQAPGKGLEWVSGISWNSGSIGYADSVKGRFTISRDNAKNSLYLQMNSLRAEDTAVYYCARGPGLATGKGYADYWGQGTLVTVSS
VL: DIQMTQSPSSVSASVGDRVTITCRASQRISSWLAWYQQKPGRAPKLLIHSASTLHNGVPSRFSGSASGTDFTLTISSLQPEDYAIYYCQQGHSFPYTFGQGTKLEIK
In the case of B5, the OD490 came to 0.0828 OD in [2], 2.83 OD in [3] and 1.28 OD in [4]. The Ratio in [5] worked out at 2.21.

B6: DLK1 A04 (monoclonal scFv-phage) (scFv, V domains shown)
VH: QVQLVESGAEVKKPGASVKVSCKASGYTFKDYAIHWVRQAPGQRLEWMGWINPGSGNTKYSHNFEGRVILTRDASANTAYLELPSLRSEDTAVYYCARSVSAYGSNYFDPWGQGTLITVSS
VL: DIQMTQSPSSLSASVGDRVTITCQASQDISNYLNWYQQKPGKAPKLLIYSTSNLQSGVPSRFSGSGSGTDFTLTISSLQPEDFATYYCQQLNSYPLTFGGGTKVDIK
As for B6, the values for the OD490 in test [2], in test [3] and in [4] were 0.0791 OD, 3.12 OD and 0.507 OD, respectively. In addition, in test [5], the Ratio amounted to 6.15.

B7: DLK1 B09 (monoclonal scFv-phage) (scFv, V domains shown)
VH: QMQLVESGGRLVRPGGSLRLSCAASGFPFTSYAMNWVRQTPGKGLEWVSTITATSGKTYYADSVKGRFTISRDNSRNTLFLQMNSLRAEDTAVYYCVRGESCSGGACSDFDYWGQGALVTVSS
VL: QLVLTQPASVSGSPGQSVTISCTGTSSDIGRYNRVSWYQHHPGKAPKLILNDVTTRPSGFSNRFSGSKSGNTASLTISGLQAEDEADYSCGSYAGSYTYVFGTGTKVTVL
B7: the OD490 in [2] turned out to be 0.0786 OD; in test [3], 2.33 OD; in test [4], 0.0918 OD. Also, in test [5], the Ratio is 25.3.

B8: ACVR2B A07 (monoclonal scFv-phage) (scFv, V domains shown)
VH: QLVESGGGLVRPGRSLTLSCTASGFTFNDYAMHWVRQAPGKGLEWVSGISWNTNSKAYADSVKGRFIISRDNAKNSLYLEMNSLRAEDTAVYYCVRDGGRFYYGLDVWGQGTSVTVSS
VL: DIVMTQTPVSSPVTLGQPASISCRSSQSLIHSDGNTYLSWIQQRPGQPPRLLIYKISNRFSGVPDRFSGSGAGTDFTLKISRVEAEDVGVYYCAETSQVPHTFGQGTKVEIK
modifications: scFv linker not given
Take B8: the OD490 in test [6] stood at 0.213 OD; in test [7] it was 2.66 OD; in test [8], 2.65 OD; in [2], 0.0443 OD; in test [9], 0.044 OD; in test [4], 0.213 OD. In addition, the Ratio in test [10] came out at 12.5.
